Results taken from the DeepSol protein solubility set.

Assay: soluble on expression in E. coli; label from the status in PepcDB or PDB records

Sequence | soluble on expression in E. coli
MNMNKTYIPKLDDLLGGGVKEGASIMFSASPGVDYEAFGYQMLNGRLDEGTRGFIFTNVEEPESIIYEFRSYGWDIESHIENGNLFFVDGSSPFLGMPSDQRYTVNDYSEIKDVVLNAINDIPGGVGIINNLSVIIDYLGNGDTLEIVEAWNRRASELDVNLVYLFTEWDYEPELIDKLRESMDCVVNLRTIEERVIIGQGFMVANSAWSEPPSTMVLFFVVQPGGVKVYVPKILVTGPYNSGKSSFVRAIATKSVSVDRKALSAFPTTIAMDIGHLEYKGFMADIFGTPGQERFDMILDVLSREAVGAFILLDSTAPETFARAKEMIRKTRAEAIPKVVVANKQDLPGALSPEEIREMMKLGADVPIVPASVTEGWGVRDALDTLLGLLYGGLEHHHHHH | not soluble
MVPITHQNLIEMMTYALVLSGNRVITSGATGTNSAAIKGAMRADPNLLTVILPQSLERQPQESRQQLEQVMHLVENPSNDNLSLAEASYLCNKEIVSRCQQLICFAFHDSRTLLQTCGDAEEQRKVVTLFYFDLEHHHHHH | not soluble
MRTTSRALMYGLYDEFQISLKCPRSPPNSSFSICHAQAAFLSGVCEAMLCPLERVQVLLQTTIFHDKFKNTLHTFNRLRDYGYREYYRGFSVILIRNSLSNTIFFTLRDPLKQKIVGIPQAGRLPESLQQLIGDFVAGSLLGATISTAFFPLGVIKNHMQAKVGVKYESGFKVFRDVWQLRNRSLRGLYLGVHLNFTRSLVAWGIINSMYGILRRALAPFE | not soluble
MHHHHHHSSGVDLGTENLYFQSNAMKKEIASHLLEIGAVFLQPNDPFTWSSGMKSPIYCDNRLTLSYPKVRQTIAAGLEELIKEHFPTVEVIAGTATAGIAHAAWVSDRMDLPMCYVRSKAKGHGKGNQIEGKAEKGQKVVVVEDLISTGGSAITCVEALREAGCEVLGIVSIFTYELEAGKEKLEAANVASYSLSDYSALTEVAAEKGIIGQAETKKLQEWRKNPADEAWITA | soluble
MRKIVLLSQIVRPALSSARFVHTSTPLSWQKFENERHFEPGEDVMKRVWHGLSYDFRRWKRRFQEARKDAFKRRHPIAHMKHGTLDNEVFPYRAEIVIIGGGLSGSSTAFWLKERFRDEDFKVVVVENNDVFTKSSTMLSTGGITQQFSIPEFVDMSLFTTEFLRHAGEHLRILDSEQPDINFFPTGYLRLAKTDEEVEMMRSAWKVQIERGAKVQLLSKDELTKRYPYMNVDDVLLASLGVENEGTIDTWQLLSAIREKNITLGVQYVKGEVEGFQFERHRASSEVHAFGDDATADENKLRAQRISGVLVRPQMNDASARPIRAHLIVNAAGPWAGQVAKMAGIGKGTGLLAVPVPIQPRKRDVFVIFAPDVPSDLPFIIDPSTGVFCRQTDSGQTFLVGRTPSKEEDAKRDHSNLDVDYDDFYQKIWPVLVDRVPGFQTAKVKSAWSGYQDINTFDDAPVIGEHPLYTNLHMMCGFGERGVMHSMAAARAYAERIFDGAYINVNLRKFDMRRIVKMDPITEPCRL | not soluble
MWVDGMAKVVEVGRICVKTRGREAGRKCVIVDIIDENFVLVTGPKSLTGVRRRRVNIDHIEILDKKVDIQKGASDEEVLKALEEAGLADFMREPVRIARITPFTLLEHHHHHH | not soluble
MEIEVKFRVNFEDIKRKIEGLGAKFFGIEEQEDVYFELPSPKLLRVRKINNTGKSYITYKEILDKRNEEFYELEFEVQDPEGAIELFKRLGFKVQGVVKKRRWIYKLNNVTFELNRVEKAGDFLDIEVITSNPEEGKKIIWDVARRLGLKEEDVEPKLYIELINGLEHHHHHH | soluble
MDNDRDTVEFWSSLFQSFADSEPKDNPYPVVRSPIMTMSTPMAIDEPVEPWKVLEYGGKEVRPMAIDEPAEPWKALEYGGKDVRPMAIDVPAEPWKVGGKEAQPANAAAEAGYKNVNTDQEKSTQKATEKVIM | soluble
MINEIKKDAQERMDKSVEALKNNLSKVRTGRAHPSLLSGISVEYYGAATPLNQVANVVAEDARTLAITVFDKELTQKVEKAIMMSDLGLNPMSAGTIIRVPLPPLTEERRKDLVKIVRGEAEGGRVAVRNIRRDANNDLKALLKDKEISEDEDRKAQEEIQKLTDVAVKKIDEVLAAKEKELMEV | soluble
MDESVDPVELLLRLLIRHKPHLKPYAYRQDSWQRVLDEYNRQTGSRYRQSRTLKTKFRRLKDLFSADRAQFSPSQLKLMGALLDEAPEHPRPRTKFGNESSSSLSSSSFIKSHPGPDPFQQLSSAEHPNNHSSDDEHSGSQPLPLDSITIGIPPTLHTIPMILSKDNDVGKVIKSPKINKGTNRFSETVLPPQMAAEQSWSDSNMELEICLDYLHNELEVIKKRQEDFECKVLNKLNIIEALLSQMRPPSQGDKI | soluble
MGSDKIHHHHHHMISEISHDVIWDLYEGEDYRDKILAEKWDVVFGEKILEMEDTLFVQSLRELELALKYAAARKDLETIKARFNLLLYTPELQGAKIKEILFQVLKFYNSFSIFALVSEKGVHRHAYVDFVTGGNYLSLIYHEDLPLNINSHTVFIDDVPPDFSPAGLGGRKIILGMDSTPKNNIPFVEIPPLRERKMDIPYMLDGVIKSLQFQGKTVKIDDDLTKLLIEYHWPGNTQEFLEKVYEIITLENPVDQAMKIASGIDEIKGLNLKEFVDSLVEFVEKKVIKKALEENEGNRKKVCEVLNMNYKTLSYKMKKYGLT | not soluble
MTKTLETQPEEKTVFLCKETNPDFLGREIYADNVETPYNFYLIRKLYLAKEYQNLAEGEQFFEALCESWDESEQFEELIVKKIYVYVETELMYYTVYFGSFEPTTRDLRSALKQWMYEIPTTKNKKTVRMNETNVQVVPQENQLTELAGEIAVLREMLTLLKENLASLNEAVNQTRNPVISRQIKTIHLKRASPVIAAEQASLKVSEDTNLEQPDVNLSPDNRENQEGETTVATSEPAPIKEALPEKKQENQQSTAAKPLFTFPQETEKSSLNSVNKSAEKEEEQKPEKEAVSMESEKENSSSRTIPADFQRQLDELEEEIYRRFMSRHLEDTDGNQAVPKITIEKRQLEAQMFEAKAFSQSFKQVQKKKAGDVRICNQLSCMKLEKGLDKFLDEVTEYVEKRTLFNKKVRCPLPVIRELEGYGQLNQYMQKILDCY | not soluble
MGSDKIHHHHHHMIVGIDVGGTNTDVAVLEGNVFQIKSFRTSEVIQNLSDFIEKNFGDAEAVGIGVAVWFVDGKPVKAPNLPAIPKMELDVPFIVDNDANCFAYFAAKTLNFRHLLAVTVGTGIGGGIVADGKIYRGRGAAGEIGHTFVGGRKRCRCGGEGHLEAYFGGWAMENVKELIDTGEIYSTAEFALFCRSLANAVMLLNPEAIALGGRIGGRLDERPLAEKVNRYLPEEIDVVVRVVKDDYAVAKGAALLALDTISQNLP | not soluble
MSLKILVLGIGNILFGDEGIGVHLSNLLKVNYRFEGPHQVDVIDGGTLAQLLIPLITSYDYVIVIDCVDAGGGKIGEVYFFDFDNVPNVITWQGSAHEVEMLQTLRMTEVNGDLPPVKIVGVIPSIIGSETAFDLSKEVAEASVTMEKIVLNHLQELGVEITRIDSKTIDEIAPLSYKGEGHHHHHH | soluble
MTNLELSGSQSYLNDESTANLSSLAGKFLVQFWGVRGLIPTPSSNTSRYGGNTACVEMQVAGKRLIFDGGTGLRILGKAWQHLQQPLEAHLFFTNSQSNRIQGFPFFAPAFIAGNCFHIYGGAASNGASIKQCLCDQMLQPHFPYPLQVMQSELQFYPLTPDSEVKLDDVTIRTALINQTQRSIGYRVTWQEYSVAYVTDLNMSAEQGEREQVLQIIQDVDLLIANATYTPPTSHDHESVDLLWQAAVEMAQKAGVRKLIISHHHPDDHDDFLDQVEKEVQSTFSDALLACEGLALPVFLEHHHHHH | soluble
AKGRAGRSKRTEQDHYETDYTTGGESCDELEEDWIREYPPITSDQQRQLYKRNFDTGLQEYKSLQSVLDEINKELSRLDKELDDYREESEEYMAAADEYNRLKQVKGSADYKSKKNHCKQLKSKLSHIKKMVGDYDRQKT | soluble
